Blank lines part the entries; values can stand above or below the binder they belong to.
Columns and labels:
[1] = target: IgE antibodies of a mixture of sera of patients allergic to P. judaica (human); assay: ELISA inhibition, extract on solid phase, pooled sera preincubated with inhibitor
[2] = target: IgE antibodies of a mixture of sera of patients allergic to P. judaica (human); assay: ELISA inhibition, extract on solid phase, pooled sera; reference nPar j 1-Par j 2
[3] = target: IgE antibodies of a mixture of sera of patients allergic to P. judaica (human); assay: ELISA inhibition, extract on solid phase, pooled sera
[4] = target: IgE antibodies of a mixture of sera of patients allergic to P. judaica (human); assay: ELISA inhibition, extract on solid phase, pooled sera; reference Q1

- degree of inhibition of IgE binding to P. judaica extract [1]: 50%
- fold more protein needed than nPar j 1-Par j 2 [2]: 500 times
B1: chimeric protein Q1 (protein)
chain: MRGSHHHHHHGILQETCGTMVRALMPCLPFVQGKEKEPSKGCCSGAKRLDGETKTGPQRVHACECIQTAMKTYSDIDGKLVSEVPKHCGIVDSKLPPIDVNMDCKTLGVVPRQPQLPVSLRHGPVTGPSDPAHKARLERPQIRVPPPAPEKAEFEEACGKVVQDIMPCLHFVKGEEKEPSKECCSGTKKLSEEVKTTEQKREACKCIVRATKGISGIKNELVAEVPKKCDIKTTLPPITADFDCSKIQSTIFRGYY

- maximum degree of inhibition of IgE binding to P. judaica extract [1]: 60%
- reduction of allergenicity (IgE-binding) against nPar j 1-Par j 2 [3]: 100%
- fold higher protein concentration than nPar j 1-Par j 2 for the same degree of inhibition [2]: 10000 times
B2: chimeric protein Q3 (protein)
chain: MRGSHHHHHHGILPETCGTMVRALMPCLPFVQGKEKEPSKGLQIQTAMKTYSDIDGKLVSEVRSSKLPPIDVNMDCKTLGVVPRQPQLPVSLRHGPVTGPSDPAHKARLERPQIRVPPPAPEKAEFEEACGKVVQDIMPCLHFVKGEEKEPSKEDIIVRATKGISGIKNELVAEVPGTLPPITADFDCSKIQSTIFRGYY

- maximum degree of inhibition of IgE binding to P. judaica extract [1]: 60%
- reduction of allergenicity (IgE-binding) against nPar j 1-Par j 2 [3]: 100%
- fold higher protein concentration than nPar j 1-Par j 2 for the same degree of inhibition [2]: 10000 times
- fold less allergenic than the chimeric protein Q1 [4]: 20 times
B3: chimeric protein Q2 (protein)
chain: MRGSHHHHHHGILQETCGTMVRALMPCLPFVQGKEKEPSKGLQIQTAMKTYSDIDGKLVSEVPKHCGIVDSKLPPIDVNMDCKTLGVVPRQPQLPVSLRHGPVTGPSDPAHKARLERPQIRVPPPAPEKAEFEEACGKVVQDIMPCLHFVKGEEKEPSKEDIIVRATKGISGIKNELVAEVPKKCDIKTTLPPITADFDCSKIQSTIFRGYY
